Like-named read-outs stand apart in the source and are kept apart here.

In data set [1] the test system is transgenic soybean plants. The data set can be described thus: S-3100 tolerance of transformed soybean plantlets at five weeks. More on the design: key to Tolerance score to S-3100 at 5 weeks: 0 for poor tolerance, high damage, low green coloration; 1 for some tolerance, average damage, moderate green coloration; 2 for good tolerance, low damage, high green coloration. The data set is classed as in vivo. The following applies: for tolerance to the PPO herbicide in high-throughput screening at five weeks: S-3100, over the constructs with different transit peptides; for Tolerance score to S-3100 at 5 weeks: day four post application. The method, then:
(§1) The microbial HemY PPO enzymes were expressed in transgenic soybean plants, and the transgenic plants were analyzed for PPO herbicide tolerance. […] For plant transformation, the nucleotide sequences encoding the HemY PPO enzymes were codon optimized for dicot expression. This permitted the side-by-side comparison of the seven different HemY PPO enzymes with thirty-nine different targeting peptides using the same promoter and 3′UTR elements for gene expression
(§2) The plant transformation constructs were used to transform soybean excised embryos (germplasm A3555) using A. tumefaciens and standard methods known in the art. Four hundred explants were inoculated for each construct resulting in twelve containers per construct. A sterile PPO herbicide solution was used for herbicide tolerance testing. The herbicide solution consisted of 0.3 g of S-3100 in crop oil concentrate (5.0 mL) and 495 mL of deionized water. This was filtered through a 0.45 micron Nalgene® Rapid-Flow™ Tissue Culture Filter Unit and Surfactant-Free Cellulose Acetate membrane filter unit (VWR, Radnor, Pa., USA). The resulting sterile solution was shaken before application.
At five weeks post-transformation, four of the twelve plant containers per construct were sprayed with two passes of the sterile PPO herbicide solution. The treated plantlets were then enclosed in the container and received at least 15 hours of light exposure post spray each day for four days. At the end of day four post application of S-3100, the treated plantlets were photographed and scored on a visual scale of green coloration (green coloration was representative of healthy photosynthetic plant tissue as compared to photo-bleached tissue) versus damage. The scoring values were 0 for poor tolerance, high damage, low green coloration; 1 for some tolerance, average damage, moderate green coloration; and 2 for good tolerance, low damage, high green coloration. The results of herbicide application of S-3100 at five weeks is presented in Table 5, where n.d. indicates the analysis was not conducted.

In data set [2] the test system is hemG knockout E. coli strain. The data set is classed as cell-based.
Data set [3] concerns transgenic soybean plants. Put plainly: S-3100 herbicide injury of R0 transgenic soybean plants at eleven weeks. The format is in vivo. The following applies: for tolerance to the PPO herbicide, R0 plants at eleven weeks: S-3100, injury rating compared with non-transgenic control (30% or above); for Tolerance score to S-3100 at 11 weeks (herbicide injury rating): R0 plants, seven days after treatment. The protocol: as §1, §2
Plants in the non-sprayed containers corresponding to constructs having a high passing score of 2 and a few fails as negative controls were transplanted at approximately 7 weeks post transformation. The R0 plants were grown in a greenhouse under long-day nursery conditions (18 hr light at 80° F. then 6 hr dark at 74° F.) for approximately four weeks. At eleven weeks, the R0 plants were sprayed with two passes of the same herbicide solution (0.3 g of S-3100) described above. Herbicide injury ratings were collected seven days after treatment. Any injury rating of 30% or above was equivalent to non-transgenic soybean injury ratings. The results of the herbicide tolerance application at eleven weeks to the R0 plants are presented in Table 6, where n.d. indicates the analysis was not conducted.

Data set [4] can be described thus: PPO enzyme assay, apparent Km for substrate. The data set is classed as biochemical. The following applies: substrate protoporphyrinogen.
Setting [5] is: acifluorfen, flumioxazin, lactofen, or fomesafen, saturating amount.

B1: R1N333: microbial HemY PPO, SEQ ID NO:17 in bacterial assay; truncated SEQ ID NO:21 in soybean (protein, listed as Bacillus atrophaeus)
chain: MSDGKKHLVIIGGGITGLASAFYMEKEIREKNLPLSVTLVEASPRVGGKIQTARKDGYIIERGPDSFLERKKSAPELVEDLGLEHLLVNNATGQSYVLVNETLHPMPKGAVMGIPTKIAPFMSTRLFSFSGKARAAMDFVLPASKPKEDQSLGEFFRRRVGDEVVENLIEPLLSGIYAGDIDRLSLMSTFPQFYQTEQKHRSLILGMKKTRPQGSGQQLTAKKQGQFQTLKTGLQTLVEELENQLKLTKVYKGTKVTNISRGEKGCSIALDNGMTLDADAAIVTSPHKSAAGMFPDLPAVSQLKDMHSTSVANVALGFPQEAVQMEHEGTGFVISRNSDFSITACTWTNKKWPHSAPEGKTLLRAYVGKAGDESIVELSDNEIIKIVLEDLKKVMKIKGEPEMTCVTRWNESMPQYHVGHKQRIKKVREALAASYPGVYMTGASFEGVGIPDCIDQGKSAVSDVLAYLFE
In the case of B1, the “tolerance to the PPO herbicide in high-throughput screening at five weeks” value in data set [1] is reported as “did not provide tolerance”. Further, the “Tolerance score to S-3100 at 5 weeks” value in data set [1] (targeting peptide TP2), in data set [1] (targeting peptide TP3), in data set [1] (targeting peptide TP4), in data set [1] (targeting peptide TP6), in data set [1] (targeting peptide TP7) and in data set [1] (targeting peptide TP8) was 0 in each case. Besides, the “Tolerance score to S-3100 at 5 weeks” value in data set [1] (targeting peptide TP9) worked out at 1; in data set [1] (targeting peptide TP11), 0; in data set [1] (targeting peptide TP12), 1; in data set [1] (targeting peptide TP13) it was 0; in data set [1] (targeting peptide TP14) it was 0; in data set [1] (targeting peptide TP15), 0. Also, the “Tolerance score to S-3100 at 5 weeks” value in data set [1] (targeting peptide TP16), in data set [1] (targeting peptide TP17), in data set [1] (targeting peptide TP18), in data set [1] (targeting peptide TP19), in data set [1] (targeting peptide TP21) and in data set [1] (targeting peptide TP22) was 0 each time. The “Tolerance score to S-3100 at 5 weeks” value in data set [1] (targeting peptide TP23) amounted to 1; in data set [1] (targeting peptide TP24), 0; in data set [1] (targeting peptide TP25), 0; in data set [1] (targeting peptide TP26) it was 0; in data set [1] (targeting peptide TP27), 1; in data set [1] (targeting peptide TP28) it was 0. The “Tolerance score to S-3100 at 5 weeks” value in data set [1] (targeting peptide TP29) worked out at 1; in data set [1] (targeting peptide TP30), 0; in data set [1] (targeting peptide TP31), 1; in data set [1] (targeting peptide TP32), 0; in data set [1] (targeting peptide TP33), 0; in data set [1] (targeting peptide TP34) it was 1. In data set [1] (targeting peptide TP36), the “Tolerance score to S-3100 at 5 weeks” value was 1. For the same molecule, in data set [2] (setting [5]), the “growth rate of hemG knockout E. coli strain in presence of PPO herbicide” value (shortened to “growth rate”) was “did not grow”. In addition, the “tolerance to the PPO herbicide, R0 plants at eleven weeks” value in data set [3] is reported as “did not provide tolerance”. The “Tolerance score to S-3100 at 11 weeks (herbicide injury rating)” value in data set [3] (targeting peptide TP8), in data set [3] (targeting peptide TP9) and in data set [3] (targeting peptide TP14) was 35% throughout.

B2: E. coli HemG: E. coli PPO enzyme HemG (protoporphyrinogen IX dehydrogenase; GenBank Accession No. WP_021498199), SEQ ID NO:76 (protein, listed as Escherichia coli)
chain: MKTLILFSTRDGQTREIASYLASELKELGIQADVANVHRIEEPQWENYDRVVIGASIRYGHYHSAFQEFVKKHATRLNSMPSAFYSVNLVARKPEKRTPQTNSYARKFLMNSQWRPDRCAVIAGALRYPRYRWYDRFMIKLIMKMSGGETDTRKEVVYTDWEQVANFAREIAHLTDKPTLK
What is called Km is the substrate concentration at which the rate is half of its maximum. In the case of B2, the Michaelis-Menten constant (Km) in data set [4] came out at 1.6 µM. Also, the “growth rate” value in data set [2] (setting [5]) is “normal growth rates”.

B3: R2N70: microbial HemY protoporphyrinogen oxidase, SEQ ID NO:3 (protein, listed as Bacillus subtilis)
chain: MSDGKKHVVIIGGGITGLAAAFYMEKEIKEKNLPLELTLVEASPRVGGKIQTVKKDGYIIERGPDSFLERKKSAPQLVKDLGLEHLLVNNATGQSYVLVNRTLHPMPKGAVMGIPTKIAPFVSTGLFSLSGKARAAMDFILPASKTKDDQSLGEFFRRRVGDEVVENLIEPLLSGIYAGDIDKLSLMSTFPQFYQTEQKHRSLILGMKKTRPQGSGQQLTAKKQGQFQTLSTGLQTLVEEIEKQLKLTKVYKGTKVTKLSHSGSGYSLELDNGVTLDADSVIVTAPHKAAAGMLSELPAISHLKNMHSTSVANVALGFPEGSVQMEHEGTGFVISRNSDFAITACTWTNKKWPHAAPEGKTLLRAYVGKAGDESIVDLSDNDIINIVLEDLKKVMNINGEPEMTCVTRWHESMPQYHVGHKQRIKELREALASAYPGVYMTGASFEGVGIPDCIDQGKAAVSDALTYLFS
Consider B3, for which the “tolerance to the PPO herbicide in high-throughput screening at five weeks” value in data set [1] is “provided tolerance”. For the same molecule, the “Tolerance score to S-3100 at 5 weeks” value is reported as 2 in data set [1] (targeting peptide TP2); 1 in data set [1] (targeting peptide TP3); 0 in data set [1] (targeting peptide TP4); 0 in data set [1] (targeting peptide TP6); 0 in data set [1] (targeting peptide TP8); 0 in data set [1] (targeting peptide TP16). Moreover, the “Tolerance score to S-3100 at 5 weeks” value in data set [1] (targeting peptide TP21) is on record as 0; in data set [1] (targeting peptide TP31), 1; in data set [1] (targeting peptide TP33), 0. Besides, the “growth rate” value in data set [2] (acifluorfen and S-3100) is reported as “slower”. Also, in data set [2] (acifluorfen and S-3100), the “tolerance to acifluorfen and S-3100 compared with strain containing R2N30 or R2N40” value is “much better”. The “tolerance to the PPO herbicide, R0 plants at eleven weeks” value in data set [3] is reported as “did not provide tolerance”. The “Tolerance score to S-3100 at 11 weeks (herbicide injury rating)” value in data set [3] (targeting peptide TP2) is on record as 30%.

For the origin of these results see patent US11319551B2, “Methods and compositions for PPO herbicide tolerance in plants” (Monsanto Technology LLC, priority 2015, dated 2022).
